Test results from patent US20080044423A1 (AstraZeneca / MedImmune, published 2008).
Where a chain is given by its changes, count along the chain named. Values joined by “and” are separate entries in the source; they are usually repeats but may differ in a detail not shown here. Identical values can stand only once. Like-named read-outs stand apart in the source and are kept apart here.

T1: cynomolgus IL-17A (cynomolgus, UniProt Q16552 24-155 (human entry), limits assumed)
T1 chain: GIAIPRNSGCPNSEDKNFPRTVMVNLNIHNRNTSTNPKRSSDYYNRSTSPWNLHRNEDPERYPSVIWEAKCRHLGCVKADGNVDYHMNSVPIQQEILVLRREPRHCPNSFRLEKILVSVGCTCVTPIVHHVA

T2: human IL-17B (Peprotech) (human, UniProt Q9UHF5 21-180, limits assumed)
T2 sequence (looked up): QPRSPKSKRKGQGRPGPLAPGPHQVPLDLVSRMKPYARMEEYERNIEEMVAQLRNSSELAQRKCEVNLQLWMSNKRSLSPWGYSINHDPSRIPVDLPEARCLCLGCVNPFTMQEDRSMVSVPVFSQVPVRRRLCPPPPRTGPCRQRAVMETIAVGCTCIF

T3: human IL-17C (R & D Systems) (human, UniProt Q9P0M4 19-197)
T3 sequence (looked up): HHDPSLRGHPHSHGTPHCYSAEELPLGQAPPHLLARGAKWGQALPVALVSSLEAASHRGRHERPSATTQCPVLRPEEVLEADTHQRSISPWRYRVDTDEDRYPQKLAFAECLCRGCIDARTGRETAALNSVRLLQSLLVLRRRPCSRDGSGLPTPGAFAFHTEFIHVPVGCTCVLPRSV

T4: human IL-17D (Peprotech) (human, UniProt Q8TAD2 18-202, limits assumed)
T4 sequence (looked up): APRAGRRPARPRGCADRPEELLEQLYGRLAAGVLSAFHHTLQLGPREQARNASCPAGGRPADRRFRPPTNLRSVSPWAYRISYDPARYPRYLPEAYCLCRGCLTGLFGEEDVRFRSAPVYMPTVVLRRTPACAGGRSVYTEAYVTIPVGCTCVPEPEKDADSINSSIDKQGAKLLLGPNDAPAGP

T5: human IL-17E (R & D Systems) (human, UniProt Q9H293 33-177)
T5 sequence (looked up): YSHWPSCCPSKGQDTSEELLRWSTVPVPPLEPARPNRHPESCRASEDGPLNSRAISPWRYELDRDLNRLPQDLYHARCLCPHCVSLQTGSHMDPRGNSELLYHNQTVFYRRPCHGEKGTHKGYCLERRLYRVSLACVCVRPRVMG

T6: human IL-17F (Peprotech) (human, UniProt Q96PD4 31-163, limits assumed)
T6 sequence (looked up): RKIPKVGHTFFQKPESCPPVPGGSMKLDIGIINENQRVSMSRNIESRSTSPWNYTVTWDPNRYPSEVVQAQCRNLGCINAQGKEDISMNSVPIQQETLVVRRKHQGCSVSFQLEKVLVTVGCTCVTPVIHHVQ

B1: murine IL-17A (R & D Systems) (ligand, UniProt Q62386 22-158, looked up)
chain: TVKAAAIIPQSSACPNTEAKDFLQNVKVNLKVFNSLGAKVSSRRPSDYLNRSTSPWTLHRNEDPDRYPSVIWEAQCRHQRCVNAEGKLDHHMNSVLIQQEILVLKREPESCPFTFRVEKMLVGVGCTCVASIVRQAA
B2: Antibody 1 IgG1 (antibody, V domains shown)
VH: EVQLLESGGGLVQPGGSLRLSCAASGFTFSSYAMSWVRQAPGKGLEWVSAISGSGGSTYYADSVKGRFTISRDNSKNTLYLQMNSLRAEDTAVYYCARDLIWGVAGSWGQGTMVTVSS
VL: NFMLTQPHSVSESPGKTVTISCTRSSGSLANYYVQWYQQRPGSAPTIVIFANNQRPSGVPDRFSGSIDSSSNSASLTISRLKTEDEADYYCQSYDDSSVVFGGGTKLTVL
notes: human IgG1, lambda; constant regions not in the listing; also called Antibody 01; TINA12 IgG1
B3: Antibody 2 IgG1 (antibody, V domains shown)
VH: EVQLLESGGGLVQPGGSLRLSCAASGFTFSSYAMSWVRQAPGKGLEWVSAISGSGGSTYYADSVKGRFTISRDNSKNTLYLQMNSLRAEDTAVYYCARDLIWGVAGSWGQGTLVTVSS
VL: B2 VL with A44S, R80G, D96P, S97H
notes: human IgG1, lambda; constant regions not in the listing; also called Antibody 02

Columns and labels:
TINA1 IgG = experiment: DELFIA epitope competition vs biotinylated human IL-17A on immobilised IgG
TINA10 IgG = experiment: as above
TINA51 IgG = experiment: as above
cynomolgus IL-17A [1] = molecular target: T1, cynomolgus IL-17A; experiment: cell-based or functional assay
[2] = molecular target: human IL-17A (HT1080 assay of Example 1, source not stated) (human, UniProt Q16552 24-155); experiment: cell-based or functional assay
cynomolgus IL-17A [3] = molecular target: T1, cynomolgus IL-17A; experiment: cell-based or functional assay
[4] = molecular target: T7, human IL-17A derived from the HEK-EBNA expression system (human, UniProt Q16552 24-155); experiment: cell-based or functional assay
[5] = molecular target: T8, human IL-17A, untagged, E. coli derived (in house or Peprotech) (human, UniProt Q16552 24-155); experiment: cell-based or functional assay
[6] = molecular target: T8, human IL-17A, untagged, E. coli derived …; experiment: cell-based or functional assay; remark: listed apart in the source
[7] = molecular target: T8, human IL-17A, untagged, E. coli derived …; experiment: cell-based or functional assay; remark: listed apart in the source
[8] = molecular target: B1; experiment: DELFIA epitope competition vs biotinylated human IL-17A on immobilised IgG
human IL-17B (Peprotech) [9] = molecular target: T2, human IL-17B (Peprotech); experiment: as above
[10] = molecular target: T3, human IL-17C (R & D Systems); experiment: as above
human IL-17D (Peprotech) [11] = molecular target: T4, human IL-17D (Peprotech); experiment: as above
[12] = molecular target: T5, human IL-17E (R & D Systems); experiment: as above
human IL-17F (Peprotech) [13] = molecular target: T6, human IL-17F (Peprotech); experiment: as above
[14] = molecular target: T7, human IL-17A derived from the HEK-EBNA …; experiment: cell-based or functional assay; remark: listed apart in the source
[15] = molecular target: native IL-17A derived from primary human T cells (human, UniProt Q16552 24-155, N-linked glycosylation); experiment: cell-based or functional assay
[16] = molecular target: T8, human IL-17A, untagged, E. coli derived …; experiment: cell-based or functional assay; remark: listed apart in the source
[17] = molecular target: T8, human IL-17A, untagged, E. coli derived …; experiment: cell-based or functional assay; remark: listed apart in the source
[18] = molecular target: T8, human IL-17A, untagged, E. coli derived …; experiment: cell-based or functional assay; remark: listed apart in the source
[19] = molecular target: B1; experiment: HTRF epitope competition vs HIS FLAG IL-17A binding the IgG
human IL-17B (Peprotech) [20] = molecular target: T2, human IL-17B (Peprotech); experiment: as above
[21] = molecular target: T3, human IL-17C (R & D Systems); experiment: as above
human IL-17D (Peprotech) [22] = molecular target: T4, human IL-17D (Peprotech); experiment: as above
[23] = molecular target: T5, human IL-17E (R & D Systems); experiment: as above
human IL-17F (Peprotech) [24] = molecular target: T6, human IL-17F (Peprotech); experiment: as above
[25] = molecular target: T7, human IL-17A derived from the HEK-EBNA …; experiment: estimated from pA2 (Schild) analysis in the HT1080 IL-6 release assay

Binder: B1
- Fold difference from Human IL-17A (TINA1 IgG): 12 fold
- IC50 (TINA1 IgG): 98 nM
- % (printed in the IC50 column, presumably inhibition) (TINA10 IgG): 50%
- Fold difference from Human IL-17A (TINA51 IgG): 0.7 fold
- IC50 (TINA51 IgG): 35 nM

Binder: B2
- HT1080 IL-6 release, IgG IC50 (cynomolgus IL-17A [1]): 172 nM
- HT1080 IL-6 release, IgG IC50 [2]: 22 nM
- Fold difference in cross-reactivity (IgG) (cynomolgus IL-17A [3]): 6 fold
- HT1080 IL-6 release, IgG IC50 (cynomolgus IL-17A [3]): 144 nM
- HT1080 IL-6 release, IgG IC50 [4]: 23 nM
- chondrocyte IL-6 release, geometric mean IC50 at 0.2 nM IL-17A [5]: 29.9 nM
- chondrocyte IL-6 release, geometric mean IC50 at 2 nM IL-17A [5]: 75.7 nM
- chondrocyte IL-8 release, geometric mean IC50 at 0.2 nM IL-17A [6]: 18.1 nM
- chondrocyte IL-8 release, geometric mean IC50 at 2 nM IL-17A [6]: 44.5 nM
- chondrocyte MMP13 release, IC50 at 2 nM IL-17A [7]: 147 nM and > 400 nM
- chondrocyte MMP13 release, geometric mean IC50 at 0.2 nM IL-17A [7]: 110 nM
- binding result [8]: no binding (tested: approx 100:1 over labelled IL-17A)
- binding result (human IL-17B (Peprotech) [9]): no binding (tested: approx 100:1 over labelled IL-17A)
- binding result [10]: no binding (tested: approx 100:1 over labelled IL-17A)
- binding result (human IL-17D (Peprotech) [11]): no binding (tested: approx 100:1 over labelled IL-17A)
- binding result [12]: no binding (tested: approx 100:1 over labelled IL-17A)
- binding result (human IL-17F (Peprotech) [13]): no binding (tested: approx 100:1 over labelled IL-17A)

Binder: B3
- Fold difference in cross-reactivity (IgG) (cynomolgus IL-17A [3]): 12 fold
- HT1080 IL-6 release, IgG IC50 (cynomolgus IL-17A [3]): 18.3 nM
- HT1080 IL-6 release, IgG IC50 [4]: 1.5 nM
- HT1080 synergised IL-6 release (125 pM human IL-17 + 25 pM human TNFα), IgG IC50 [14]: 0.41 nM
- T cell supernatant induced IL-6 production in HT1080 cells, IC50 [15]: 0.25 nM
- chondrocyte IL-6 release, geometric mean IC50 at 0.2 nM IL-17A [16]: 1.52 nM
- chondrocyte IL-6 release, geometric mean IC50 at 2 nM IL-17A [16]: 5.51 nM
- chondrocyte IL-8 release, geometric mean IC50 at 0.2 nM IL-17A [6]: 2.3 nM
- chondrocyte IL-8 release, geometric mean IC50 at 2 nM IL-17A [6]: 7.91 nM
- chondrocyte IL-8 release, geometric mean IC50 at 0.2 nM IL-17A [17]: 1.49 nM
- chondrocyte IL-8 release, geometric mean IC50 at 2 nM IL-17A [17]: 7.18 nM
- cartilage explant synergised IL-6 response, Mean IC50 [18]: 3.39 nM
- binding result [19]: no binding
- binding result (human IL-17B (Peprotech) [20]): no binding
- binding result [21]: no binding
- binding result (human IL-17D (Peprotech) [22]): no binding
- binding result [23]: no binding
- binding result (human IL-17F (Peprotech) [24]): no binding
- Kd [25]: 0.188 nM
